The DeepSol protein solubility set

assay: soluble on expression in E. coli; label from the status in PepcDB or PDB records

Row | Sequence | soluble on expression in E. coli
1 | MDILLTLLDDKTSVASDWRILGIISLRGSTPRLAILLQVVQWAAFYCWRNYMSPYKDKRWRSKRDTALRRDKYECRNCKRFGITTTATVVHHVWFLRDYPKWWLCLWNLISLCEKCHNKMHNRDSDIPTELGEYWQDKIKPPTSATKKYFLEHHHHHH | not soluble
2 | MGSDKIHHHHHHMLVVIPQVLNAEQVGAVRERLEHAGEAWVDGRVTAGYSGAPVKFNQQIDERSDVALECQRLILGMLERNPRFISAALPNIVYPPMFNRYSEGMTFGAHVDGSVRIHPHDGRKLRTDISATLFLSPHDSYDGGELQVQDTYGMHSVKLDAGDMVVYPATSLHQVTPITRGTRVASFFWIQSLIRDDTQRSLLFDMDNAIQRLNQTGADEEARRTLVGCYHNLLRQWSET | not soluble
3 | MLDKLRSRLVHAGPSLMSVPVKLTPFALKRQVLEQVLSWQFRQALADGELEFLEGRWLSIHVRDIDLKWYTTVENEKLIVSQQADADVSFSADASDLLMIAARKQDPDTLFFQRRLVIEGDTELGLYVKNLMDAIELEQMPKALRVMLLQLADFVEAGMKNSPETKQTSVGEPC | not soluble
4 | VGKPKMDVDLLQVDADLKKEIFDAYYNTMKTAVMTEEKLAREVEIDKVKDTVKEVYAEKFSEHEEEAQLLKEVKQIAEDLEKDVVRELITIDKIRPDGRKLDEIRH | not soluble
5 | MAHHHHHHMRSFMYMCRQVQGARFIQITRSRCGRTIPYKLADIGEGIKEVEVVTLYVKPGDRIGEFEKICEVQSDKATVEITSRYAGVITTVHIEAGEKAHVGEPIVDIEVNDTDETQKPSCGTVDCNVSDQFNNGGVPVAEEGDSCAADCTTEISKDFTKVLATPAVREFARSRGVNITDVKGTGKDGRVLREDVLSYAGKSCYNDDVVVRLDTGLRKAMVSSMTKAGSVPSFTACDEVEVSQLLNFQHILRDALNSSSEGVRDGSKVSLMPLFIKAASQSLLQYPELNAHVSSECDKLFVKKAHHIGFAMDTPKGLVVPVVRDVQQKSVAELVHEVNELVTLGRKSQIPPDRMKDGTFTLSNIGPIGAIYATPMLNPPQVAIGAIGRIQQLPRFDASGNVVRANILAMSWTADHRVIDGATLVRFSNAFKRCLESPGLLIAGEVA | not soluble
6 | TVEDSESDMDDAKLDALMGNEGEEEEDDLAEIDTSNIITSGRRTRGKVIDYKKTAEELDKKE | soluble
7 | MAHHHHHHMDDFPLSLCSSNIRETMFKVTAPLFLALTTSNAIALSRGTSVSVSSEGGKCNEIWYSNGKEMCGSPLAPQSSTVQRALPPAPAPAKKPESSLRSGDEVATQHEERGGLDLRSIASRQPSFDALSATINGERQVGRASGTAIRGGNEGSAEPSSDEGQQRTTELWSGQAEGQVKQMAEGEQRNPGSGDEGQNQGGDVAPLQVAKEGESNMKWPPAQRVILGTVKENAQKETRKDLDDLEQEANSTQVGRTTAHKRHVMLITATLSFICVQRLLV | soluble
8 | SENDVIELDDVANLMFYGEGEVGDNHQKFMLIFDTGSANLWVPSKKCNSIGCSTKHLYDSSKSKSYEKDGTKVEITYGSGTVRGFFSKDLVTLGYLSLPYKFIEVTDTDDLEPLYTAAEFDGILGLGWKDLSIGSIDPIVVELKNQNKIDQALFTFYLPVHDKHSGYLTIGGIEEKFYEGELTYEKLNHDLFWQVDLDVNFGKTSMEKANVIVDSGTSTITAPTSFINKFFKDLNVIKVPFLPFYITTCNNKDMPTLEFKSANNTYTLEPEYYMEPLLDIDDTLCMLYILPVDIDKNTFILGDPFMRKYFTVFDYDKESIGFAVAKN | soluble
9 | MAKPILYSYWRSSCAWRVRIALALKNIDYEYRPIDLFSEESKNNAEFVKHNPAKKVPTLVINGLSLTESLAIIEYLDEAYPDPPFLPKELDKRSYSRAIALHIVASIQPLQAINIHKMLNEKEPGYGDFWCNHFVNKGFLALEELLKKHSGKYCVGDQLTIADINLPSIIYNAKIYKVDMSKYPTITRINEILAEDFRFKLAHPDNQPDAPNKN | not soluble
10 | MKQPEEELQETLTELDDRAVVDYLRHHPEFFIRNAHAVEAMRVPHPVRGTVSLVEWHMARARNHINVLEENMTLLMEQAHANESLFYRLLHLQSRLVAADSLDEMLVRFHRWARDLGLAGATLRLFPDRWRLGAPSRYTHLALNRQAFEPLRIQRLGQSQHYLGPLNGPELLVVLPEAKAVGSVAMSMMGSDGGLGVILFSSRDPHHYQPGQGTQLLQEIALMLPELLERWIKRVLEHHHHHH | not soluble
